Source: patent US20080131910A1 (LUDWIG INSTITUTE FOR CANCER RESEARCH, published 2008)

Experiments:
[1] = molecular target: T1, ALK-5 (activin receptor like kinase 5), human TGF-β type I receptor (human, UniProt P36897 25-503); assay: affinity cross-linking followed by immunoprecipitation, COS-1 cells co-transfected with ActR-II and the ALK
T1 construct: Expressed from cDNA in COS-1 cells and PAE cells (PAE/TβR-I), or endogenous in human cell lines (AG1518, A549, HSC-2, HUVEC); also called hALK-5; clone EMBLA
T1 sequence: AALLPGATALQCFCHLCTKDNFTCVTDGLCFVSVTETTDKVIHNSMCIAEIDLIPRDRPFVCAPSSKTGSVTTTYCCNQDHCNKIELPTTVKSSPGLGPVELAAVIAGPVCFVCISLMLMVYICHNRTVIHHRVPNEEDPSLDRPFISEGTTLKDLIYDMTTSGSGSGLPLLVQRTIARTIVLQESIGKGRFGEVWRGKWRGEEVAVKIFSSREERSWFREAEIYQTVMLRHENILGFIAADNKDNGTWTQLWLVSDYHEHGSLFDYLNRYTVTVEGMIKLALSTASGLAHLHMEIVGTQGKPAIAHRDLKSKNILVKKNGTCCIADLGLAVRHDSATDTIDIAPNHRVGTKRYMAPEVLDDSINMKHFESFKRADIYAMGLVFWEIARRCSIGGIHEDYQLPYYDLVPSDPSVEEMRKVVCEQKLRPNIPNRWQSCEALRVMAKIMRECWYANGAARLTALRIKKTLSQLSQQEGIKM

[2] = molecular target: T2, ALK-6 (activin receptor like kinase 6), mouse (mouse, UniProt P36898 14-502); assay: as above
T2 construct: Expressed from cDNA in COS-1 cells; also called mALK-6; clone ME-6
T2 sequence (P36898 14-502 limits assumed): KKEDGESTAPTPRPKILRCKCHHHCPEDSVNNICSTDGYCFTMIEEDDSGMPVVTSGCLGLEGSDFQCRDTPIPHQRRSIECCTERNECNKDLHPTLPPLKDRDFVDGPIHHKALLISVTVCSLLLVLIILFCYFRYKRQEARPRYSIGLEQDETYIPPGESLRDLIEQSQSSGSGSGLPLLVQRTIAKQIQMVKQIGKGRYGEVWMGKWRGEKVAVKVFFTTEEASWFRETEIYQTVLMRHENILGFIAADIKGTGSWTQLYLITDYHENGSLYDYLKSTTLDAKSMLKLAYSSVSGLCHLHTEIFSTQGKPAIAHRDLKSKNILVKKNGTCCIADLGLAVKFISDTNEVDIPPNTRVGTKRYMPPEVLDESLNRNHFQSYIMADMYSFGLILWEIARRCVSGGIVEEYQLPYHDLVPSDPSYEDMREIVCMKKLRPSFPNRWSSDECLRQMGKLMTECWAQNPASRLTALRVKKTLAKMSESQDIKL

B1: Recombinant human activin A (ligand, UniProt P08476 311-426, looked up)
chain: GLECDGKVNICCKKQFFVSFKDIGWNDWIIAPSGYHANYCEGECPSHIAGTSGSSLSFHSTVINHYRMRGHSPFANLKSCCVPTKLRPMSMLYYDDGQNIIKKDIQNMIVEECGCS
modifications: 125I-iodinated (chloramine T method)
B1: binds [1]; binds [2].
